Laboratory results published in article PMC3602594.
Where no end group is shown, it is not given here.

What was measured:
[1] = biological target: Atto647N-YidC-23C (Escherichia coli) (UniProt P25714)
[2] = biological target: Atto647N-YidC-511C (Escherichia coli) (UniProt P25714); experiment: FRET or BRET; single-pair FRET by confocal microscopy with alternating laser excitation (514 nm / 635 nm); Atto520-labeled Pf3 coat protein added to Atto647N-labeled YidC reconstituted in DOPC proteoliposomes; 20 mM Tris-HCl pH 7.0, 100 mM NaCl, isopropanol from the Pf3 solution; about 0.2 nM of both labeled proteins; bursts recorded for 420 s
[3] = biological target: Atto647N-YidC-442C (Escherichia coli) (UniProt P25714); experiment: as above
[4] = biological target: Atto647N-YidC-23C (Escherichia coli) (UniProt P25714); experiment: as above

Binder: MQSVITDVTGQLTAVC(Atto520‑maleimide)ADITTIGGAIIVLAAVVLGIRWIKAQFF (natural protein) [Atto520-Pf3-16C]
- insertion rate k (reciprocal of the time required for a distance change from 6.2 to 4.0 nm in single-pair FRET traces), at 15, 20, 25 and 30°C; k ≈ 250 s^−1 at 15°C [1]: 500 s⁻¹
- duration of the close contact [2]: 10 ms
- duration of the close contact [3]: 10 ms
- duration of the close contact [4]: 10 ms
